Reference: patent publication US20240174746A1 (Alector, published 2024)
Positions count from the first letter of the chain named.

B1: TM-93 (antibody, V domains shown)
VH: QVQLKESGPGLVAPSQSLSITCTVSGFSLSSYGISWVRQPPGKGLEWLGVIWTGGGTNYNSALESRLSITKDNSKSQVFLKMNSLQTDDTARYYCARNPPKIFYDYLMYFDYWGQGTTVTVSS
VL: DIVMTQSHKLMSTSVGDRVSITCKASQDVGSAVAWYQQKPGQSPQLLIYWSSTRLPGVPDRFTGSGSGTDFTLTISNVQSEVLADYFCQQYTSYPLTFGGGTKLEIK
notes: Purified from mouse hybridoma
B2: TM-86 (antibody, V domains shown)
VH: EVQLQQSGPVLVKPGASVKMSCKASGYTFTDYYIHWVKQSHGRSLEWIGVISPYNDNTNYNQKFKGKATLTVDKSSSTAYMELNSLTSEDSAVYYCVRTYYSNYFDYWGQGTTLTVSS
VL: DIVMTQSPSSLSVSAGEKVTMSCKSSQSLLNSGNQKNYLAWHQQRPGQPPKLLIYGASTRESGVPDRFTGSGSGTEFTLTISSVQAEDLAVYYCQNDHSYPLTFGAGTKLELK
notes: Purified from mouse hybridoma
B3: TM-88 (antibody, V domains shown)
VH: EAQLQQSGPVLVKPGASVKMSCKTSGYTFTDYYINWVKQSHGKSLEWIGVINPYSGATYYTQKFKGKATLTVDKSSSTAYMELNSQTSEDSAVYYCARGGYDYGHWYFDVWGTGTTVTVSS
VL: ETTVTQSPASLSMAIGEKVTIRCITSSDIDDHMNWYRQKPGEPPEFLISEGNALRPGVPSRFSSSGYGTDFIFTIENILSEDVADYYCLQSDNLPLTFGAGTKLELK
notes: Purified from mouse hybridoma
B4: TM-91 (antibody, V domains shown)
VH: DVQLQESGPGLVKPSQSLSLTCSVTGYSITSGYYWDWIRQFPGNKLEWMGYISYDGNNNYNPSLKNRISITRDTSKNQFFLKLNSVTTEDTATYYCARAVYSVGFAYWGQGTLVTVSS
VL: DIVMTQSQKFMSTSVGDRVSVTCKASQNVYTNVAWYQQKPGQSPKPLIYSASYRYSGVPDRFTGSGSGTDFTLTISNVQSEDLAEYFCQQYNSYPLTFGGGTKLEIK
notes: Purified from mouse hybridoma
B5: TM-87 (antibody, V domains shown)
VH: EVQLQQSGPVLVKPGASVKLSCKASGYTFTDYYMNWVKQSHGKSLEWIGVINPYNGATSYNQKFQDKATLTVDKSSSTAYMGLNSLTSEDSAVYYCANGNYDWYFDVWGTGTTVTVSS
VL: DVQITQSPSYLAASPGETITINCRASRSISKYLAWYQEKPGKTNKLLIYSGSTLQSGIPSRFSGSGSGTDFTLTISSLEPEDFAVYYCQQHNEYPLTFGAGTKLELK
notes: Purified from mouse hybridoma
B6: TM-92 (antibody, V domains shown)
VH: EVQLQQSGPELVKPGASVKIPCKASGYTFTDYTMDWVKQSPGKSLEWIGHINPNDGGTFYNQKFKGKATLTVDKSSSTAYMELRSLTSEDSAVYYCARWVYYYGISYEGGAMDYWGQGTSVTVSS
VL: B5 VL with R27K, V85M, L96W, A100G, L106I
notes: Purified from mouse hybridoma
B7: TM-94 (antibody, V domains shown)
VH: EVQLQQSGPELVKPGASVKIPCKASGYTFTDYNMDWVKQSHGKSLEWIGDINPYNGGTLYNQKFKGKATLTVDKSSNTAYMEIRSLTYEDTAVYYCARVGYHGTPDYWGQGTTVTVSS
VL: DVVMTQTPLSLPVSLGDQASISCRSSQSLVYSNGNTYLHWYLQRPGQSPKLLIYKVSNRFSGVPDRFSGSGSGTDFTLKISRVEAEDLGVYFCSQSTHVYTFGGGTKLEIK
notes: Purified from mouse hybridoma

These binders were tested against T1, cynomolgus (cyno) TMEM106B (cynomolgus, UniProt Q9NUM4 2-274 (human entry)) (assay: flow cytometry, HEK293 cells transiently transfected with cyno TMEM106B).
T1 construct: Full-length cDNA transiently transfected into HEK293 cells
Procedure: (§1) For screening of the hybridoma cell culture supernatants, humanTMEM106B-transfected HEK293 cells were aliquoted in 96-well round bottom plates (2×10⁵ cells per well) and incubated with 50 μL of hybridoma cell culture supernatant on ice for 30 minutes. […] Cell sorting was performed on a FACS Canto system (BD Biosciences) or iQue (Intellicyt), with sort gates drawn to exclude dead (i.e., propidium iodide-positive) cells. Median fluorescence intensity (MFI) of anti-mouse-APC MFI on TMEM106B+ HEK293 cells was calculated for each clone, and those displaying a signal of at least 2-fold over background compared to a secondary-antibody only well were taken forward for further analysis and characterization.

fold-change in binding over parental HEK293 cells [fold]	Binder
9.21	B1
5.81	B2
7.57	B3
2.45	B4
7.21	B5
5.7	B6
6.1	B7

What follows are binders tested against T2, mouse TMEM106B (mouse, UniProt Q80X71 2-275) (assay: flow cytometry, HEK293 cells transiently transfected with murine TMEM106B).
T2 construct: Full-length cDNA transiently transfected into HEK293 cells; also called muTMEM106B; murine TMEM106B
Procedure: as §1

fold-change in binding over parental HEK293 cells [fold]	Binder
8.83	B1
5.78	B2
5.84	B3
2.41	B4
27	B5
5.15	B6
2.35	B7

Each binder was assayed against T3, human TMEM106B (human, UniProt Q9NUM4 2-274) (assay: flow cytometry, HEK293 cells transiently transfected with human TMEM106B).
T3 construct: Full-length cDNA transiently transfected into HEK293 cells; also called huTMEM106B
Procedure: as §1

fold-change in binding over parental HEK293 cells [fold]	Binder
11.5	B1
9.73	B2
7.81	B3
5.22	B4
12.8	B5
9.14	B6
3.79	B7
